Paper PMC2896673 (Journal of Biomedicine and Biotechnology, 2010)

Target: human procollagen V proα2(V) chain, produced in HEK-293 cells (human, UniProt P05997 27-1499)
Test: ion-exchange chromatography (DEAE-cellulose) with Western blot of the fractions; supernatant of medium of co-transfected HEK-293 cells (clone C22) after dialysis against 50 mM Tris-HCl pH 8.6; linear 0–0.6 M NaCl gradient; fractions double probed with mAb 18G5 and polyclonal antibodies to collagen V
Conditions: partners not purified

Sequence of human procollagen V proα2(V) chain, produced in HEK-293 cells (P05997 27-1499): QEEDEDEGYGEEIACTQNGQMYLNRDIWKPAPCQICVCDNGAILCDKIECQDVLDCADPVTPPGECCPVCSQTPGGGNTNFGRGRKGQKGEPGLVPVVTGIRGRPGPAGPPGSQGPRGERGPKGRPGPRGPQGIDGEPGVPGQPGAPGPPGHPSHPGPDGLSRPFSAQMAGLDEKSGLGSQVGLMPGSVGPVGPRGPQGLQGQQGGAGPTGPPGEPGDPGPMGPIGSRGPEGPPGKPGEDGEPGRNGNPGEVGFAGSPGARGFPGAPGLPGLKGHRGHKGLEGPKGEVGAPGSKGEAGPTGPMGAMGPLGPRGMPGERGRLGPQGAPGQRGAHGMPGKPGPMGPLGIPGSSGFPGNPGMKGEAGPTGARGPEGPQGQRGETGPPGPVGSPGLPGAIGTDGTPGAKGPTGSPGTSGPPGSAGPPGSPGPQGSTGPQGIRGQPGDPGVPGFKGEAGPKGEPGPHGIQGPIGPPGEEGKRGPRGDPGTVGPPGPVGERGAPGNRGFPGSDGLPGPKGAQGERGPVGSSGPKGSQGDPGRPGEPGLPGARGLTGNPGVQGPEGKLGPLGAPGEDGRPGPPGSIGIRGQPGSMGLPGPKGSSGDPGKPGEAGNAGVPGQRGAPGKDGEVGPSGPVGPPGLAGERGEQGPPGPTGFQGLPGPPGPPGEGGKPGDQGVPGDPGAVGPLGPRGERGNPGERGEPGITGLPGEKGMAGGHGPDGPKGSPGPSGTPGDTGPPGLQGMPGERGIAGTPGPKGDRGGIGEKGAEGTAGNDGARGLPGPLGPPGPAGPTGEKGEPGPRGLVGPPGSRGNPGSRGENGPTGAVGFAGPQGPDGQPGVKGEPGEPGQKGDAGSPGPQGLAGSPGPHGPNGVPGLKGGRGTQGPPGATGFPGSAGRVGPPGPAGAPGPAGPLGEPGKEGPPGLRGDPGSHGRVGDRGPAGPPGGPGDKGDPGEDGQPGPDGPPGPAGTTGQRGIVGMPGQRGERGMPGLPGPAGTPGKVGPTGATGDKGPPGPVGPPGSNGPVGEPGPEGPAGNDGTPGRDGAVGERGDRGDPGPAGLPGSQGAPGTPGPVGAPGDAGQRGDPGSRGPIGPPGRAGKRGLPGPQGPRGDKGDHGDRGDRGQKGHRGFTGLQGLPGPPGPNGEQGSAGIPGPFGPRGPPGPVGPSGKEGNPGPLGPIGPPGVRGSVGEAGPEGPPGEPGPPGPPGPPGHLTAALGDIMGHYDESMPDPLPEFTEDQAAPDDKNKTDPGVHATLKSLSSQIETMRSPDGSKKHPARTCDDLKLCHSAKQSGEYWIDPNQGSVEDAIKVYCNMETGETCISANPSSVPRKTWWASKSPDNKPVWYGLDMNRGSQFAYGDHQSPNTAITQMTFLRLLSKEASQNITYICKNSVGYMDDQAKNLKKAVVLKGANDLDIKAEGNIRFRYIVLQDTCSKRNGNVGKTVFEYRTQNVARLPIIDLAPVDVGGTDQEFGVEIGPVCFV

B1: human procollagen V proα1(V) chain, produced in HEK-293 cells (natural protein, UniProt P20908 38-1838, looked up)
chain: QPADLLKVLDFHNLPDGITKTTGFCATRRSSKGPDVAYRVTKDAQLSAPTKQLYPASAFPEDFSILTTVKAKKGSQAFLVSIYNEQGIQQIGLELGRSPVFLYEDHTGKPGPEDYPLFRGINLSDGKWHRIALSVHKKNVTLILDCKKKTTKFLDRSDHPMIDINGIIVFGTRILDEEVFEGDIQQLLFVSDHRAAYDYCEHYSPDCDTAVPDTPQSQDPNPDEYYTEGDGEGETYYYEYPYYEDPEDLGKEPTPSKKPVEAAKETTEVPEELTPTPTEAAPMPETSEGAGKEEDVGIGDYDYVPSEDYYTPSPYDDLTYGEGEENPDQPTDPGAGAEIPTSTADTSNSSNPAPPPGEGADDLEGEFTEETIRNLDENYYDPYYDPTSSPSEIGPGMPANQDTIYEGIGGPRGEKGQKGEPAIIEPGMLIEGPPGPEGPAGLPGPPGTMGPTGQVGDPGERGPPGRPGLPGADGLPGPPGTMLMLPFRFGGGGDAGSKGPMVSAQESQAQAILQQARLALRGPAGPMGLTGRPGPVGPPGSGGLKGEPGDVGPQGPRGVQGPPGPAGKPGRRGRAGSDGARGMPGQTGPKGDRGFDGLAGLPGEKGHRGDPGPSGPPGPPGDDGERGDDGEVGPRGLPGEPGPRGLLGPKGPPGPPGPPGVTGMDGQPGPKGNVGPQGEPGPPGQQGNPGAQGLPGPQGAIGPPGEKGPLGKPGLPGMPGADGPPGHPGKEGPPGEKGGQGPPGPQGPIGYPGPRGVKGADGIRGLKGTKGEKGEDGFPGFKGDMGIKGDRGEIGPPGPRGEDGPEGPKGRGGPNGDPGPLGPPGEKGKLGVPGLPGYPGRQGPKGSIGFPGFPGANGEKGGRGTPGKPGPRGQRGPTGPRGERGPRGITGKPGPKGNSGGDGPAGPPGERGPNGPQGPTGFPGPKGPPGPPGKDGLPGHPGQRGETGFQGKTGPPGPPGVVGPQGPTGETGPMGERGHPGPPGPPGEQGLPGLAGKEGTKGDPGPAGLPGKDGPPGLRGFPGDRGLPGPVGALGLKGNEGPPGPPGPAGSPGERGPAGAAGPIGIPGRPGPQGPPGPAGEKGAPGEKGPQGPAGRDGLQGPVGLPGPAGPVGPPGEDGDKGEIGEPGQKGSKGDKGEQGPPGPTGPQGPIGQPGPSGADGEPGPRGQQGLFGQKGDEGPRGFPGPPGPVGLQGLPGPPGEKGETGDVGQMGPPGPPGPRGPSGAPGADGPQGPPGGIGNPGAVGEKGEPGEAGEPGLPGEGGPPGPKGERGEKGESGPSGAAGPPGPKGPPGDDGPKGSPGPVGFPGDPGPPGEPGPAGQDGPPGDKGDDGEPGQTGSPGPTGEPGPSGPPGKRGPPGPAGPEGRQGEKGAKGEAGLEGPPGKTGPIGPQGAPGKPGPDGLRGIPGPVGEQGLPGSPGPDGPPGPMGPPGLPGLKGDSGPKGEKGHPGLIGLIGPPGEQGEKGDRGLPGPQGSSGPKGEQGITGPSGPIGPPGPPGLPGPPGPKGAKGSSGPTGPKGEAGHPGPPGPPGPPGEVIQPLPIQASRTRRNIDASQLLDDGNGENYVDYADGMEEIFGSLNSLKLEIEQMKRPLGTQQNPARTCKDLQLCHPDFPDGEYWVDPNQGCSRDSFKVYCNFTAGGSTCVFPDKKSEGARITSWPKENPGSWFSEFKRGKLLSYVDAEGNPVGVVQMTFLRLLSASAHQNVTYHCYQSVAWQDAATGSYDKALRFLGSNDEEMSYDNNPYIRALVDGCATKKGYQKTVLEIDTPKVEQVPIVDIMFNDFGEASQKFGFEVGPACFMG
In the case of B1, the “stoichiometry N” value is reported as ~2.
